Measured values reported in patent US20120157824.

Key:
[1] = test system: oligopeptide linker containing the urokinase-specific cleavage sequence SGRSA (SEQ ID NO: 2)
[2] = test system: T1, GAGSGRSAGA oligopeptide sequence (SEQ ID NO: 66, deleted at the N-terminus by 1 residue and the C-terminus by 2 residues) linking Fe/Fe3O4/ASOX/stealth-nanoparticles into oligomers
T1 sequence: GAGSGRSAGA

[3] = test system: T2, GAGSGRSAGAG linkage (SEQ ID NO: 66, deleted by 1 residue at each of the N-terminus and C-terminus) between nanoparticle and non-metalated TCPP
T2 sequence: GAGSGRSAGAG

[4] = test system: T3, cleavage sequence DGGGSGRSAGGGD (SEQ ID NO: 65) coupled to TCPP and to stealth-coated Fe/Fe3O4 nanoparticles
T3 sequence: DGGGSGRSAGGGD

[5] = test system: T4, cleavage sequence for urokinase DGAGSGRSAGAGD (SEQ ID NO: 66) linking porphyrin-labeled stealth coated Fe/Fe3O4 nanoparticles
T4 sequence: DGAGSGRSAGAGD

[6] = test system: urokinase consensus sequence linker DGGSGRSAGGGC (SEQ ID NO: 68) linking Fe/Fe3O4 nanoplatforms

urokinase in rat urine, sequence (chain, as listed by the source): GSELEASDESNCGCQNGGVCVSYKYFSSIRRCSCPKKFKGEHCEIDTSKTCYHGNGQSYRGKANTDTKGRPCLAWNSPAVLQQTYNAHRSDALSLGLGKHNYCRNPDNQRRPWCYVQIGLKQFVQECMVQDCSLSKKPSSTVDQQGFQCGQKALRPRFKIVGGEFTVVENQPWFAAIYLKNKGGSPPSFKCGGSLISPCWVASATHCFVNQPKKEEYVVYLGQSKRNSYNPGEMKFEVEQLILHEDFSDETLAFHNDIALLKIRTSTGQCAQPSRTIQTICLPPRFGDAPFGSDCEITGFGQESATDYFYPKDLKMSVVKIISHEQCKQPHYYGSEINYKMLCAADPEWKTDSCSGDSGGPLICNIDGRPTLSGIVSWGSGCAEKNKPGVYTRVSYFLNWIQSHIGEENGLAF
urokinase in canine urine, sequence (chain, as listed by the source): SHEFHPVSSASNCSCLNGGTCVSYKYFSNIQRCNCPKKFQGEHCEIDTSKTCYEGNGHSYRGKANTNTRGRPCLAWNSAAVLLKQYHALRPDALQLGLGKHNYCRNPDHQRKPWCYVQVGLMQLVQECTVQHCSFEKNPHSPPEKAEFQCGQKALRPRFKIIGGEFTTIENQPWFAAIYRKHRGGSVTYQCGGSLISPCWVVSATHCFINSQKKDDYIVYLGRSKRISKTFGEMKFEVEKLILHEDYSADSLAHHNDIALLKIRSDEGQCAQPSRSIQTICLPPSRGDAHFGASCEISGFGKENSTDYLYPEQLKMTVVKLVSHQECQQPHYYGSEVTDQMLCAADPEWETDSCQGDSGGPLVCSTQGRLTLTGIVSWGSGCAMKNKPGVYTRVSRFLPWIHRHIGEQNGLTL

urokinase in canine urine
fluorescence enhancement over time, Sample B (dog undergoing chemotherapy) [1]: had a detectable enhancement in fluorescence than the control (Sample A), but was still much lower than Sample C | fluorescence enhancement over time, Sample C (dog just diagnosed with cancer) [1]: showed a rapid increase in fluorescence

urokinase (Sigma Aldrich, St. Louis, Mo.)
T1 of H2O 10 minutes after adding 1×10^-14 mol urokinase per ml (3.004 seconds before) [2]: After 10 minutes, T1 had decreased to 2.003 seconds | T2 of H2O 10 minutes after adding 1×10^-14 mol urokinase per ml (0.07579 seconds before) [2]: T2 had increased to 0.1334 seconds | fluorescence lifetime τ1, Fe/Fe3O4-linkage-TCPP plus urokinase (1×10^-7 M) [3]: 1.39 ns | fluorescence lifetime τ1, Fe/Fe3O4/ASOX/Au-linkage-TCPP plus urokinase (1×10^-7 M) [3]: 1.47 ns | fluorescence lifetime τ2, Fe/Fe3O4-linkage-TCPP plus urokinase (1×10^-7 M) [3]: 30 ns | fluorescence lifetime τ2, Fe/Fe3O4/ASOX/Au-linkage-TCPP plus urokinase (1×10^-7 M) [3]: 29.3 ns | overall fluorescence enhancement, 10 min. after urokinase was added [3]: The overall fluorescence enhancement of this system was approx. 75 (10 min. after urokinase was added) | relative contribution f1, Fe/Fe3O4-linkage-TCPP plus urokinase (1×10^-7 M) [3]: 78 | relative contribution f1, Fe/Fe3O4/ASOX/Au-linkage-TCPP plus urokinase (1×10^-7 M) [3]: 80 | relative contribution f2, Fe/Fe3O4-linkage-TCPP plus urokinase (1×10^-7 M) [3]: 22 | relative contribution f2, Fe/Fe3O4/ASOX/Au-linkage-TCPP plus urokinase (1×10^-7 M) [3]: 20 | optical extinction (absorption + scattering) over 40 min, urokinase 1×10^-10 M [4]: the observable change of the extinction is caused by the change in scattering once the oligopeptide-tether is cleaved by the enzyme | signal intensity at 440 nm divided by signal intensity at 600 nm vs. time [4]: a linear slope has been obtained | r2/r1 (MRI relaxivity ratio) at t = 0 min [5]: -27.6 | r2/r1 (MRI relaxivity ratio) at t = 5 min [5]: -21.9 | r2/r1 (MRI relaxivity ratio) at t = 10 min [5]: -19.6 | r2/r1 (MRI relaxivity ratio) at t = 15 min [5]: -16.8 | r2/r1 (MRI relaxivity ratio) at t = 20 min [5]: -16.5 | r2/r1 (MRI relaxivity ratio) at t = 25 min [5]: -15.8 | r2/r1 (MRI relaxivity ratio) at t = 30 min [5]: -15.3 | r2/r1 (MRI relaxivity ratio) at t = 40 min [5]: -14.8 | r2/r1 (MRI relaxivity ratio) at t = 50 min [5]: -14.1 | r2/r1 (MRI relaxivity ratio) at t = 60 min [5]: -13.5 | T1 relaxivity r1 after protease cleavage of the linker [1]: r1 increased slightly to 180±20 mM s^-1 | T2 relaxivity r2 after protease cleavage of the linker [1]: r2 increased to -2,350±250 mM s^-1

urokinase in rat urine
luminescence of TCPP released from the nanoplatform, 36 day urine [1]: the luminescence from TCPP increased steadily over time for the 36 day urine | luminescence of TCPP released from the nanoplatform, control (5 day urine) [1]: The control (5 day urine) did not demonstrate a significant increase in luminescence | UV/Vis backscattering spectrum of the nanoparticle-dimer over 120 minutes, rat urine (estimated urokinase 5×10^-10 M) [6]: The change in the optical properties is clearly discernible upon the cleavage of the oligopeptides-linker by urokinase
